According to patent publication US20120322725A1 (INDIANA UNIVERSITY RESEARCH AND TECHNOLOGY, published 2012):
“And” between values parts separate entries of the source, which are not always exact repeats. Equal values may be shown once. Square brackets hold non-standard residues; d marks the D form. Ends that are not written are not given here. * marks the point of attachment. MCA = alpha-methylhydrocinnamic acid (2-methyl-3-phenylpropanoic acid); PLA = 3-phenyllactic acid (2-hydroxy-3-phenylpropanoic acid); PhLac = O=C(O)[C@@H](O)Cc1ccccc1; Carboxymethyl = O=C(O)C*

B1: [desHis^1, Leu^4, hCys^9(SO3^-), Phe^25, Leu^27]Glucagon-NH2 (peptide)
peptide: SQLTFTSXYSKYLDSRRAQDFVQFLLNT
HELM: PEPTIDE1{S.Q.L.T.F.T.S.[O=C([C@H](CCS(=O)(=O)O)N[*:1])[*:2]].Y.S.K.Y.L.D.S.R.R.A.Q.D.F.V.Q.F.L.L.N.T.[am]}$$$$V2.0; N-terminus assumed
SMILES: CC(C)C[C@H](NC(=O)[C@H](Cc1ccc(O)cc1)NC(=O)[C@H](CCCCN)NC(=O)[C@H](CO)NC(=O)[C@H](Cc1ccc(O)cc1)NC(=O)[C@H](CCS(=O)(=O)O)NC(=O)[C@H](CO)NC(=O)[C@@H](NC(=O)[C@H](Cc1ccccc1)NC(=O)[C@@H](NC(=O)[C@H](CC(C)C)NC(=O)[C@H](CCC(N)=O)NC(=O)[C@@H](N)CO)[C@@H](C)O)[C@@H](C)O)C(=O)N[C@@H](CC(=O)O)C(=O)N[C@@H](CO)C(=O)N[C@@H](CCCNC(=N)N)C(=O)N[C@@H](CCCNC(=N)N)C(=O)N[C@@H](C)C(=O)N[C@@H](CCC(N)=O)C(=O)N[C@@H](CC(=O)O)C(=O)N[C@@H](Cc1ccccc1)C(=O)N[C@H](C(=O)N[C@@H](CCC(N)=O)C(=O)N[C@@H](Cc1ccccc1)C(=O)N[C@@H](CC(C)C)C(=O)N[C@@H](CC(C)C)C(=O)N[C@@H](CC(N)=O)C(=O)N[C@H](C(N)=O)[C@@H](C)O)C(C)C
B2: [(CSA-1)^9]Glucagon(aa6-29)-NH2 (peptide)
peptide: FTSC(Carboxymethyl)YSKYLDSRRAQDFVQWLMNT-NH2
modifications: N-terminus assumed
SMILES: CSCC[C@H](NC(=O)[C@H](CC(C)C)NC(=O)[C@H](Cc1c[nH]c2ccccc12)NC(=O)[C@H](CCC(N)=O)NC(=O)[C@@H](NC(=O)[C@H](Cc1ccccc1)NC(=O)[C@H](CC(=O)O)NC(=O)[C@H](CCC(N)=O)NC(=O)[C@H](C)NC(=O)[C@H](CCCNC(=N)N)NC(=O)[C@H](CCCNC(=N)N)NC(=O)[C@H](CO)NC(=O)[C@H](CC(=O)O)NC(=O)[C@H](CC(C)C)NC(=O)[C@H](Cc1ccc(O)cc1)NC(=O)[C@H](CCCCN)NC(=O)[C@H](CO)NC(=O)[C@H](Cc1ccc(O)cc1)NC(=O)[C@H](CSCC(=O)O)NC(=O)[C@H](CO)NC(=O)[C@@H](NC(=O)[C@@H](N)Cc1ccccc1)[C@@H](C)O)C(C)C)C(=O)N[C@@H](CC(N)=O)C(=O)N[C@H](C(N)=O)[C@@H](C)O
notes: also called [C^9(SCH2COOH)]Glucagon(aa6-29)-NH2; peptide no
B3: [(CSA-2)^9]Glucagon(aa6-29)-NH2 (peptide)
peptide: FTSCYSKYLDSRRAQDFVQWLMNT
HELM: PEPTIDE1{F.T.S.[O=C(O)CCSC[C@H](N[*:1])C(=O)[*:2]].Y.S.K.Y.L.D.S.R.R.A.Q.D.F.V.Q.W.L.M.N.T.[am]}$$$$V2.0; N-terminus assumed
SMILES: CSCC[C@H](NC(=O)[C@H](CC(C)C)NC(=O)[C@H](Cc1c[nH]c2ccccc12)NC(=O)[C@H](CCC(N)=O)NC(=O)[C@@H](NC(=O)[C@H](Cc1ccccc1)NC(=O)[C@H](CC(=O)O)NC(=O)[C@H](CCC(N)=O)NC(=O)[C@H](C)NC(=O)[C@H](CCCNC(=N)N)NC(=O)[C@H](CCCNC(=N)N)NC(=O)[C@H](CO)NC(=O)[C@H](CC(=O)O)NC(=O)[C@H](CC(C)C)NC(=O)[C@H](Cc1ccc(O)cc1)NC(=O)[C@H](CCCCN)NC(=O)[C@H](CO)NC(=O)[C@H](Cc1ccc(O)cc1)NC(=O)[C@H](CSCCC(=O)O)NC(=O)[C@H](CO)NC(=O)[C@@H](NC(=O)[C@@H](N)Cc1ccccc1)[C@@H](C)O)C(C)C)C(=O)N[C@@H](CC(N)=O)C(=O)N[C@H](C(N)=O)[C@@H](C)O
notes: also called [C^9(SCH2CH2COOH)]Glucagon(aa6-29)-NH2; peptide no
B4: [Lys^9]Glucagon(aa6-29)-NH2 (peptide)
peptide: FTSKYSKYLDSRRAQDFVQWLMNT-NH2
notes: also called [K^9]Glucagon(aa6-29)-NH2; peptide no

target: T1, glucagon receptor (UniProt P47871 26-477, limits assumed); assay: cell-based or functional assay
T1 sequence (P47871 26-477 limits assumed): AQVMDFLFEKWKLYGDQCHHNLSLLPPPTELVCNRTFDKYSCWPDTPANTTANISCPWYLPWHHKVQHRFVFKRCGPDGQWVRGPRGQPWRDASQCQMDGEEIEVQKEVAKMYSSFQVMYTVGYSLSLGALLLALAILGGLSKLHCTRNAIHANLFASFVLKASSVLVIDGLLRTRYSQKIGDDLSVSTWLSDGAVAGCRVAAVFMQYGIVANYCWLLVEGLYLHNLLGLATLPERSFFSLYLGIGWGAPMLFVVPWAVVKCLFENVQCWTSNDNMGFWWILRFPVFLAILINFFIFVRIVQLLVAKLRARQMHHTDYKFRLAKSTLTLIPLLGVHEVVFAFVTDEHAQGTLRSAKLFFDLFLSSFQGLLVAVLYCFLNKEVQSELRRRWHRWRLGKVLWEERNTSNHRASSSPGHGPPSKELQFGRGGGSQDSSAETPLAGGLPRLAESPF

cAMP Induction EC50 | cAMP Inhibition IC50 | Binder
1610 nM | 4.46 µM | B1

target: T1, glucagon receptor; assay: cell-based or functional assay; remark: another data set of the same source

cAMP (I/A)50 | cAMP pA2 | Binder
1730 | 6.94 | FTSDYSKYLDSRRAQDFVQWLMNT-NH2 (also called peptide no) [Glucagon(aa6-29)-NH2]
506 | 6.68 | B2
580 | 6.64 | B3
1990 | 6.58 | B4

target: T1, glucagon receptor; assay: cell-based or functional assay; remark: another data set of the same source

cAMP IC50 | cAMP pA2 | Binder
346 nM | 6.94 | FTSDYSKYLDSRRAQDFVQWLMNT-NH2 (also called peptide no) [Glucagon(aa6-29)-NH2]
101 nM | 6.68 | B2
116 nM | 6.64 | B3
398 nM | 6.58 | B4

target: T1, glucagon receptor; assay: cell-based or functional assay; remark: another data set of the same source

IC50(nM) (cAMP, inhibit 0.2 mM Glucagon) | Binder
976 nM | C(PEG 20 kDa)FTSEYSKYLDSRRAQDFVQWLMNT-NH2 [[C5(20kDaPEG), E9]Glucagon(aa5-29)-NH2]
236 nM and 92 nM | [PhLac]TC(maleimido methoxyPEG 20 kDa)EYSKYLDSRRAQDFVQWLMNT-NH2 [[PLA6, C8(20kDaPEG), E9]Glucagon(aa6-29)-NH2]
664 nM | [PhLac]TSEYC(maleimido methoxyPEG 20 kDa)KYLDSRRAQDFVQWLMNT-NH2 [[PLA6, E9, C11(20kDaPEG)]Glucagon(aa6-29)-NH2]
126 nM | [PhLac]TSEYSKYLDSRRAQDFVC(maleimido methoxyPEG 20 kDa)WLMNT-NH2 [[PLA6, E9, C24(20kDaPEG)]Glucagon(aa6-29)-NH2]
1610 nM | C(PEG 5 kDa)FTSEYSKYLDSRRAQDFVQWLMNT-NH2 [[C5(5kDaPEG), E9]Glucagon(aa5-29)-NH2]
1340 nM | C(PEG 3.4 kDa)FTSEYSKYLDSRRAQDFVQWLMNT-NH2 (also: dimer: two chains joined by 3.4 kDa PEG at Cys5) [3.4kDaPEG-dimer[C5, E9]Glucagon(aa5-29)-NH2]
2280 nM | C(PEG 1.2 kDa)FTSEYSKYLDSRRAQDFVQWLMNT-NH2 [[C5(1.2kDaPEG), E9]Glucagon(aa5-29)-NH2]
18 nM | {PLA}-TSEYSKYLDSRRAQDFVC(PEG 1.2 kDa)WLMNT-NH2 [[PLA6, E9,C24(1.2 kDaPEG)]Glucagon(aa6-29)-NH2]
216 nM | {PLA}-TC(PEG 5 kDa)EYSKYLDSRRAQDFVQWLMNT-NH2 [[PLA6, C8(5kDaPEG), E9]Glucagon(aa6-29)-NH2]

target: T1, glucagon receptor; assay: receptor binding, method not described

IC50 | Binder
1670 nM | FTSDYSKYLDSRRAQDFVQWLMNT-NH2 (also called peptide no) [Glucagon(aa6-29)-NH2]
107 nM | B2
146 nM | B3
3240 nM | B4

target: T1, glucagon receptor; assay: receptor binding, method not described; remark: another data set of the same source

IC50 | Binder
331 nM | C(PEG 20 kDa)FTSEYSKYLDSRRAQDFVQWLMNT-NH2 [[C5(20kDaPEG), E9]Glucagon(aa5-29)-NH2]
208 nM | [MCA]TSEYSKYLDSRRAQDFVC(maleimido methoxyPEG 20 kDa)WLMNT-NH2 [[MCA6, E9, C24(20kDaPEG)]Glucagon(aa6-29)-NH2]
303 nM | [PhLac]TC(maleimido methoxyPEG 20 kDa)EYSKYLDSRRAQDFVQWLMNT-NH2 [[PLA6, C8(20kDaPEG), E9]Glucagon(aa6-29)-NH2]
776 nM | [PhLac]TSEYC(maleimido methoxyPEG 20 kDa)KYLDSRRAQDFVQWLMNT-NH2 [[PLA6, E9, C11(20kDaPEG)]Glucagon(aa6-29)-NH2]
90 nM | [PhLac]TSEYSKYLDSRRAQDFVC(maleimido methoxyPEG 20 kDa)WLMNT-NH2 [[PLA6, E9, C24(20kDaPEG)]Glucagon(aa6-29)-NH2]
634 nM | C(PEG 5 kDa)FTSEYSKYLDSRRAQDFVQWLMNT-NH2 [[C5(5kDaPEG), E9]Glucagon(aa5-29)-NH2]
435 nM | C(PEG 3.4 kDa)FTSEYSKYLDSRRAQDFVQWLMNT-NH2 (also: dimer: two chains joined by 3.4 kDa PEG at Cys5) [3.4kDaPEG-dimer[C5, E9]Glucagon(aa5-29)-NH2]
1080 nM | C(PEG 1.2 kDa)FTSEYSKYLDSRRAQDFVQWLMNT-NH2 [[C5(1.2kDaPEG), E9]Glucagon(aa5-29)-NH2]
220 nM | {PLA}-TC(PEG 1.2 kDa)EYSKYLDSRRAQDFVQWLMNT-NH2 [[PLA6, C8(1.2kDaPEG), E9]Glucagon(aa6-29)-NH2]
4.7 nM | {PLA}-TSEYSKYLDSRRAQDFVC(PEG 1.2 kDa)WLMNT-NH2 [[PLA6, E9,C24(1.2 kDaPEG)]Glucagon(aa6-29)-NH2]
948 nM | {PLA}-TC(PEG 5 kDa)EYSKYLDSRRAQDFVQWLMNT-NH2 [[PLA6, C8(5kDaPEG), E9]Glucagon(aa6-29)-NH2]

target: T1, glucagon receptor; assay: receptor binding (named so for the same values in Table I), method not described

IC50 | Binder
1890 nM | FTSDYSKYLDSRRAQDFVQWLMNT-NH2 (also called peptide no) [Glucagon(aa6-29)-NH2]
107 nM | B2
146 nM | B3
5780 nM | B4
36.4 nM | LTFTSEYSKYLDSRRAQDFVQWLMNT-NH2 (also called peptide no) [[Leu^4, Glu^9]Glucagon(aa4-29)-NH2]
